Measured values as given in ChEMBL document CHEMBL1129640, “Assessment of structural requirements for the monoamine oxidase-B-catalyzed oxidation of 1,4-disubstituted-1,2,3,6-tetrahydropyridine derivatives related to the neurotoxin 1-methyl-4-phenyl-1,2,3,6-tetrahydropyridine” (J Med Chem, 1996).
Values joined by “and” are separate entries in the source; they are usually repeats but may differ in a detail not shown here. Identical values can stand only once.

Key:
[1] = substrate: COc1ccc(C2=CCN(C)CC2)cc1; test: Michaelis-Menten constant was measured against monoamine oxidase B (MAO-B) from beef liver; Inactive
[2] = substrate: CCc1ccc(C2=CCN(C)CC2)cc1; test: (§1) Michaelis-Menten constant was measured against monoamine oxidase B (MAO-B) from beef liver
[3] = substrate: CN1CC=C(c2ccc(F)cc2)CC1; test: as §1
[4] = substrate: Cc1ccc(C2=CCN(C)CC2)cc1; test: as §1
[5] = substrate: CN1CC=C(c2ccc(Br)cc2)CC1; test: as §1
[6] = substrate: CN1CC=C(c2ccc(Cl)cc2)CC1; test: as §1

B1: Amine oxidase [flavin-containing] B (Bos taurus) (protein)
chain: MSSKCDVVVVGGGISGMAAAKLLHDSGLNVIVLEARDRVGGRTYTLRNQKVKYVDLGGSYVGPTQNHILRLSKELGLETYKVNEVERLIHHTKGKSYPFRGSFPSVWNPITYLDHNNLWRTMDDMGREIPSDAPWKAPLAEQWDLMTMKELLDKICWTESSKQLAILFVNLCVTAEIHEVSALWFLWYVKQCGGTTRIFSTSNGGQERKFVGGSGQVSERIMDLLGDRVKLERPVIHIDQTGENVLVETLNHELYEAKYVISAVPPVLGMKIHFNPPLPMMRNQLITRVPLGSVIKSIVYYKEPFWRNMDYCGSMIIEGEEAPVAYALDDTKPDGSYPAIIGFILAHKARKLARLTKEERLKKLCDLYAKVLGSQEALHPVHYEEKNWCEEQYSGGCYTSYFPPGIMTQYGRVLRQPVGRIYFAGTETATHWSGYMEGAVEAGERAAREILHAMGKIPEDEIWLPEPESVDVPAKPITTTFLQRHLPSVPGLLKLIGLTTIFSATALGFLAHKRGLLVRI
Q: For B1, which Km [1] is on record?
A: The Km was 940 µM.

Q: And the kcat [1]?
A: Its kcat is 1.13 s⁻¹.

Q: And the Km [2]?
A: Its Km is 1890 µM.

Q: And the kcat [2]?
A: The kcat was 1.42 s⁻¹.

Q: And the Km [3]?
A: The Km was 220 µM.

Q: And the kcat [3]?
A: The kcat was 1.55 s⁻¹.

Q: What about the Km [4] of the same protein?
A: The Km was 500 µM and 490 µM.

Q: What about the Km [5] of the same protein?
A: Its Km is 140 µM.

Q: What about the kcat [5] of the same protein?
A: Its kcat is 1.18 s⁻¹.

Q: What about the Km [6] of the same protein?
A: Its Km is 180 µM and 200 µM.
